B1: PR003181 (antibody, human IgG4 S228P, kappa)
heavy: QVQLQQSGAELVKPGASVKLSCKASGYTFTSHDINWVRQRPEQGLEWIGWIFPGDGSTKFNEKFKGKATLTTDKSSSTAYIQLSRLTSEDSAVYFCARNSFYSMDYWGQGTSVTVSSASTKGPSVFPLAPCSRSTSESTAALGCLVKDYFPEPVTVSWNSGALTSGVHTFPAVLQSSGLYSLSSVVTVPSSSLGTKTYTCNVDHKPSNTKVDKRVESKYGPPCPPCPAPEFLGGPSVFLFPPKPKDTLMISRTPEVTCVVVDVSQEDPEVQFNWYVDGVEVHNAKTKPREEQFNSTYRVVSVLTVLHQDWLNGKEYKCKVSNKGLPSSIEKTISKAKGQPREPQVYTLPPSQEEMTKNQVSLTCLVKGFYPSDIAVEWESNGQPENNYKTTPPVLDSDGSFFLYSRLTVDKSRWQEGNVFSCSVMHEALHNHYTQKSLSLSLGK
light: DIVMSQSPSSLAVSAGEKVTMSCKSSQSLLNSRTRKNQLAWYQQKPGQSPKLLIYWASTRESGVPDRFTGSGSGTDFTLTISSVQAEDLAVYYCKQSYNLRTFGGGTKLEIKRTVAAPSVFIFPPSDEQLKSGTASVVCLLNNFYPREAKVQWKVDNALQSGNSQESVTEQDSKDSTYSLSSTLTLSKADYEKHKVYACEVTHQGLSSPVTKSFNRGEC
notes: also called Control antibody 1; positive control
B2: Biotin-B7H4 protein (Acro Biosystems, B74-H82E2) (ligand, UniProt Q7Z7D3 29-258, looked up)
chain: FGISGRHSITVTTVASAGNIGEDGILSCTFEPDIKLSDIVIQWLKEGVLGLVHEFKEGKDELSEQDEMFRGRTAVFADQVIVGNASLRLKNVQLTDAGTYKCYIITSKGKGNANLEYKTGAFSMPEVNVDYNASSETLRCEAPRWFPQPTVVWASQVDQGANFSEVSNTSFELNSENVTMKVVSVLYNVTINNTYSCMIENDIAKATGDIKVTESEIKRRSHLQLLNSKA
modifications: biotinylated
notes: also called negative control protein

How the values were obtained:
[1] = target: T1, human B7-H7 recombinant protein (human, UniProt Q9UM44 23-344); assay: BLI (Octet), antibody captured on AHC sensor, human B7-H7 in solution, 1:1 global fit
T1 construct: also called human B7-H7 protein
T1 sequence (looked up): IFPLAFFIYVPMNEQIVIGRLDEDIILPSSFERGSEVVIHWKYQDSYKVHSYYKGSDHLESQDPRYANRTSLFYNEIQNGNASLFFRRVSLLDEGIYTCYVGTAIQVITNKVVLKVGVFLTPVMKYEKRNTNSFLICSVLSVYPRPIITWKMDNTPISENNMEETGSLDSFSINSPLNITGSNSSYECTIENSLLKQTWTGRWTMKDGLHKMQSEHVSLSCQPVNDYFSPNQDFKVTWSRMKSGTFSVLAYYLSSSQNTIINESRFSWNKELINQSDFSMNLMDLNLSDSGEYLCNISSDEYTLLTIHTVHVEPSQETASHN
Protocol: The binding kinetics between antigen and antibody was analyzed using an Octet Red 96e (Fortebio) molecular interaction analyzer by biolayer interferometry (BLI) technology.
For determining the affinity of antibodies for antigens, the rotary speed of the sensor was set at 1000 rpm. AHC sensors (Fortebio, #18-5060) placed in one column were first equilibrated in a test buffer for 10 minutes, and then used to capture the anti-B7-H7 antibodies at a capture height of 0.7 nm; and after being equilibrated in the buffer for 120 s, the AHC sensors bound to human B7-H7 (concentrations: 50-3.125 nM and 0 nM) with 2-fold gradient dilution for 180 s and dissociated for 300 s. The AHC sensors were finally regenerated by immersing in a 10 mM glycine-hydrochloric acid solution with pH 1.5 to elute the protein bound to the sensors.
For data analysis using Octet Data Analysis software (Fortebio, version 11.0), 0 nM well was used as the reference well, reference subtraction was performed, “1:1 Global fitting” method was selected for data fitting, the kinetic parameters of the binding of the antigen to the antigen-binding protein were calculated, and the kₒₙ (1/Ms) value, kdis (1/s) value and KD (M) value were obtained.

[2] = target: T2, human B7-H7 on the cell surface (human, UniProt Q9UM44 23-414); assay: flow cytometry, HCC827 cells
T2 construct: whole, on cells; also called hB7-H7; hu B7-H7
T2 sequence (looked up): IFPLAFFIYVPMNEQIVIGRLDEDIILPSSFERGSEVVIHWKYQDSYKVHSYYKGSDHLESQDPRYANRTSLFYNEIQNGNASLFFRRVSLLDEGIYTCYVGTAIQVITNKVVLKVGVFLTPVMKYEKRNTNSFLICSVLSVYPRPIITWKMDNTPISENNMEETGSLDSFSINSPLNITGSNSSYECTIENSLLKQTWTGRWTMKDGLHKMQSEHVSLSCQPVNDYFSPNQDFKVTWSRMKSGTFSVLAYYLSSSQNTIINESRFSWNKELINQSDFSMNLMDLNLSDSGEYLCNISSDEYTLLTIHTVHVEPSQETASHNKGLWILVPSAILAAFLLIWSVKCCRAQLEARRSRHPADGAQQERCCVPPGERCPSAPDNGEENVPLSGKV
Protocol: This example was intended to study the in vitro activity of H2L2 monoclonal antibodies against human B7-H7 in binding to human/cynomolgus monkey B7-H7. Since homologous molecules of B7-H7 were not present in mice, the detection was not performed. […] The cells were adjusted to a cell density of 1×10⁶ cells/mL, respectively. The cells were seeded in a 96-well V-bottom plate (Corning, #3894) at 100 μL/well, and the antibody to be tested at 2× final concentration with 3-fold concentration gradient dilution was then added at 100 μL/well. The cells were incubated at 4° C. for 2 hours in the dark. After the incubation, the cells were rinsed twice by adding pre-chilled PBS containing 2% BSA at 100 μl/well, and centrifuged at 500 g at 4° C. for 5 minutes, and the supernatant was discarded. […] The cells were washed twice by adding pre-chilled PBS containing 2% BSA at 100 μL/well, and centrifuged at 500 g at 4° C. for 5 minutes, and the supernatant was discarded. Finally, the cells were resuspended in pre-chilled PBS containing 2% BSA at 200 μL/well, and the fluorescence signal values were read using an ACEA Novocyte3000 flow cytometer.

[3] = target: T3, biotinylated human B7-H7 protein (Acro Biosystems, B77-H82F5) (human, UniProt Q9UM44 23-344, biotinylated); assay: flow cytometry, blocking of biotinylated human B7-H7 binding to HEK-293/CD28H cells
T3 construct: Bought soluble protein; also called biotin-B7H7 protein
T3 sequence (looked up): T1 sequence (looked up)
Protocol: This example was intended to study the in vitro blocking activity of human anti-B7-H7 antibodies against the binding of human B7-H7 to its receptor CD28H. […] The cells were adjusted to a cell density of 1×10⁶ cells/mL. […] The cells were incubated at 4° C. for 1 hour in the dark. […] The cells were rinsed twice by adding pre-chilled PBS containing 2% BSA at 100 μL/well, and were centrifuged at 500 g at 4° C. for 5 minutes, and the supernatant was discarded. A fluorescent secondary antibody (PE Streptavidin, BD, Cat #: 554061, 1:200) was added at 100 μL/well, and the cells were incubated at 4° C. for 30 minutes in the dark. The cells were washed twice by adding pre-chilled PBS at 200 μL/well, and centrifuged at 500 g at 4° C. for 5 minutes, and the supernatant was discarded. Finally, the cells were resuspended in pre-chilled PBS at 200 μL/well, and the fluorescence signal values were read using an ACEA Novocyte3000 flow cytometer. IC50 was calculated.

[4] = target: T3, biotinylated human B7-H7 protein (Acro …); assay: BLI epitope competition on SA-captured biotinylated B7-H7; competitor (first antibody) PR003249
Protocol: (§1) Epitope competition experiments were performed on the anti-B7-H7 antibodies using the ForteBio Octet Red96e platform with the same experimental buffer as described above. […] After being equilibrated in a buffer for 120 s, the sensors were immersed in various antibodies diluted to 100 nM for 240 s, and the final signal of the antibody binding to B7-H7 was recorded as the 100% signal for that antibody. Second step, epitope competition experiment: B7-H7 was captured using SA sensors at a capture height of 0.25 nm. The sensors were immersed in a first antibody (concentration: 100 nM) for 240 s, then the SA sensors were immersed in a mixture of the first antibody and a second antibody (final concentration of both antibodies: 100 nM) for 240 s, and the difference in signals before and after immersing the sensors in the mixture of the two antibodies was recorded as the signal for that antibody as the second antibody. The inhibition rate was calculated by the following equation, […]

[5] = target: T3, biotinylated human B7-H7 protein (Acro …); assay: BLI epitope competition on SA-captured biotinylated B7-H7; competitor (first antibody) PR003251
Protocol: as §1

[6] = target: T3, biotinylated human B7-H7 protein (Acro …); assay: flow cytometry, blocking of biotinylated human B7-H7 binding to CHO-K1/KIR3DL3 cells
Source text: This example was intended to study the in vitro blocking activity of human anti-B7-H7 antibodies against the binding of human B7-H7 to its receptor KIR3DL3. A CHO-K1 cell (CHO-K1/KIR3DL3, Harbour BioMed US, Inc.) overexpressing human KIR3DL3 was used in experiments at the cellular level where human B7-H7/human KIR3DL3 binding was blocked. Briefly, the CHO-K1/KIR3DL3 cells were digested and resuspended in PBS containing 2% BSA. The cells were adjusted to a cell density of 1×10⁶ cells/mL. […] The cells were incubated at 4° C. for 1 hour in the dark. […] The cells were rinsed twice by adding pre-chilled PBS containing 2% BSA at 100 μL/well, and were centrifuged at 500 g at 4° C. for 5 minutes, and the supernatant was discarded. A fluorescent secondary antibody (PE Streptavidin, BD, Cat #: 554061, 1:200) was added at 100 μL/well, and the cells were incubated at 4° C. for 30 minutes in the dark. The cells were washed twice by adding pre-chilled PBS at 200 µL/well, and centrifuged at 500 g at 4° C. for 5 minutes, and the supernatant was discarded. Finally, the cells were resuspended in pre-chilled PBS at 200 μL/well, and the fluorescence signal values were read using an ACEA Novocyte3000 flow cytometer. IC50 was calculated.

[7] = target: T4, Human KIR3DL3 protein (Sino Biological, 16055-H08H) (human, UniProt Q8N743 26-322); assay: ELISA, coated KIR3DL3, biotinylated protein detected with StrepTactin-HRP
T4 construct: Coated on the ELISA plate
T4 sequence (Q8N743 26-322 limits assumed): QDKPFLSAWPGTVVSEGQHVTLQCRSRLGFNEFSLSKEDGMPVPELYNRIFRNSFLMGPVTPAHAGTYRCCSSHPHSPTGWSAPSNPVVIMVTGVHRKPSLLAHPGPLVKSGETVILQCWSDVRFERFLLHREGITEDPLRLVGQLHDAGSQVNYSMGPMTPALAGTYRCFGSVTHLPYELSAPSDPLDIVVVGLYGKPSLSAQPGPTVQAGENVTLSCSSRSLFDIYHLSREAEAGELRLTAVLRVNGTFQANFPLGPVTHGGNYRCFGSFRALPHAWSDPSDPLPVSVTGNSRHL
Protocol: After the liquid was discarded, the plate was washed 3 times with a PBS buffer, 200 μl of PBS blocking solution containing 1% BSA was added, and the plate was incubated for 1 hour at room temperature. The blocking solution was discarded, and the plate was washed 3 times with a PBS buffer. […] The antibodies to be tested were subjected to 3-fold concentration dilution from 100 nM, with a total of 8 gradient concentrations. 100 μl of the diluted antibody was added to each well, and the plate was incubated at 4° C. overnight.

Binder	Kd [1] [nM]	koff [1] [s⁻¹]	kon [1] [M⁻¹ s⁻¹]	EC50 [2] [nM]	Maximum MFI [2] [MFI]	IC50 [3] [nM]	Competitive inhibition rate (%) [4] [%]	Competitive inhibition rate (%) [5] [%]	IC50 [6] [nM]	Maximum inhibition rate (%) [6] [%]	binding result [7]
B1	26.3	0.00205	78100	2.55	25100	71.7	77	5.32	10.4	96.7	–
B2	–	–	–	–	–	–	–	–	–	–	no binding (tested: 6 µg/ml)
